Laboratory results reported in patent US20190055312A1 (CELL MEDICA, published 2019).
Several values for one entry are separate records, joined by “and”; a condition that tells them apart may be missing. Equal values may be shown once. Values belong to the binder of their own block, whether it stands above or below them.

How the values were obtained:
[1] = biological target: T1, human PD-L1-His (BioVision, USA, cat. no. 7429) (human, UniProt Q9NZQ7 19-238, limits assumed); test: ratio of KinExA KD values (scFv1 on PD-L1 Fc fusion as reference)
T1 construct: Bought reagent without Fc tag, chosen to avoid avidity; also called His tagged PD-L1; not shown: His tag

[2] = biological target: T1, human PD-L1-His (BioVision, USA, cat. …); test: KinExA in solution, human PD-L1-His titrated against constant IgG, n-curve analysis
Method: All steps were carried out at room temperature. […] This voltage signal is used to calculate the KD value and activity of the scFv using the “n-curve analysis” of the KinExA® Pro software version 4.1.9 or 4.2.10 (FIG. 5) using the option “titrant as analysis concentration reference”.
These mixtures were incubated for 5 hours.

[3] = biological target: T2, recombinant human (rh) PD-L1 Fc fusion (RnD Systems, USA, cat. no. 156-B7) (human, UniProt Q9NZQ7 19-239); test: competition ELISA, rhPD-L1 Fc fusion coated, displacement of biotinylated PD-1 Fc fusion
T2 construct: Bought reagent; also called human PD-L1 Fc fusion; not shown: Fc part of the bought fusion
Method: Plates were blocked with 1% BSA and 0.05% Tween-20 in PBS, pH7.4. A serial dilution of IgGs was prepared, with eleven 1:3 dilutions starting at 1 mcg/mL, and added to plates. […] The ELISA was developed with TMB ELISA substrate solution (eBioscience, USA, cat. no. 00-4201-56).

[4] = biological target: T3, rhB7-H3 Fc fusion (RnD Systems, USA, cat. no. 1027-B3) (human, UniProt Q5ZPR3-2 29-245, limits assumed); test: binding ELISA, rhB7-H3 Fc fusion coated, Protein L-HRP detection
T3 construct: Bought reagent; also called human B7-H3; not shown: Fc part of the bought fusion
T3 sequence (looked up): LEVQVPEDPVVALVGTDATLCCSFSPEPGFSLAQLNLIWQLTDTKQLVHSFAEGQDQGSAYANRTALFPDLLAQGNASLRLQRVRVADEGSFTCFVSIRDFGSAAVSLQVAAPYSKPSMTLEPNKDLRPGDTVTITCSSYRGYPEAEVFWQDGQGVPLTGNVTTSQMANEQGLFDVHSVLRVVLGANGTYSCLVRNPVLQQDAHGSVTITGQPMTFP
Method: (§1) Plates were blocked with 1% BSA and 0.5% Tween-20 in PBS, pH7.2. A serial dilution of scFvs was prepared with concentrations of 5, 1 and 0.2 mcg/mL and added to plates.

[5] = biological target: T2, recombinant human (rh) PD-L1 Fc fusion …; test: binding ELISA: coated rhPD-L1 Fc fusion, scFv1 in human serum, 20 h at 37 C, detected with Protein L-HRP
Method: (§2) After blocking with PBS, pH7.4 with, 1% BSA and 0.05% Tween-20, a series of 1:3 dilutions of 2.5 mcg/ml to 42 ng/mL serum/scFv samples was added to the ELISA plates in duplicate. […] The ELISA was developed with TMB ELISA substrate solution (eBioscience, USA, cat. no. 00-4201-56).

[6] = biological target: T2, recombinant human (rh) PD-L1 Fc fusion …; test: binding ELISA: coated rhPD-L1 Fc fusion, scFv1 in human serum, 0 h at 37 C, detected with Protein L-HRP
Method: as §2

[7] = biological target: T2, recombinant human (rh) PD-L1 Fc fusion …; test: competition ELISA: coated rhCD80-His, scFv titrated against constant 50 nM rhPD-L1 Fc fusion, bound PD-L1 Fc detected with anti-human IgG Fc-HRP
Method: Plates were blocked with 1% BSA and 0.05% Tween-20 in PBS, pH7.4. […] This mixture was incubated with the CD80 coated plates for 2 hours at room temperature. […] The ELISA was developed with TMB ELISA substrate solution (eBioscience, USA, cat. no. 00-4201-56).

[8] = biological target: T4, rat PD-L1 Fc fusion (Sino Biological, China, cat. no. 80450-R02H) (Rattus norvegicus (Norway rat), UniProt D4AE25 19-239); test: binding ELISA: coated rat PD-L1 Fc fusion, detected with Protein L-HRP
T4 construct: Bought reagent; not shown: Fc part (and any linker) of the bought Sino Biological 80450-R02H fusion
Method: Plates were blocked with 1% BSA and 0.5% Tween-20 in PBS, pH7.2. A serial dilution of scFvs was prepared with concentrations of 1 mcg/mL, 333 ng/mL and 111 ng/mL and added to plates. […] Development was with TMB ELISA substrate solution (eBioscience, USA, cat. no. 00-4201-56).

[9] = biological target: T2, recombinant human (rh) PD-L1 Fc fusion …; test: binding ELISA: coated rhPD-L1 Fc fusion, scFv1 in PBS without incubation, detected with Protein L-HRP
Method: as §2

[10] = biological target: monkey PD-L1 Fc fusion (Sino Biological, China, cat. no. 90251-C02H) (Rhesus macacque (Macaca mulatta)) (UniProt F6PJN1); test: KinExA in solution, room temperature, monkey PD-L1 Fc fusion titrated against constant scFv1, n-curve analysis
[11] = biological target: T5, natural form of PD-L1 expressed on the surface of ES-2 cells (human, UniProt Q9NZQ7 19-290); test: KinExA, ES-2 cells titrated against 50 pM scFv1, room temperature
T5 construct: whole, on cells; also called cell surface PD-L1; human natural form of PD-L1
Method: (§3) Duplicate measurements were prepared for each data point. […] These mixtures were incubated for 5 hours. […] These mixtures were incubated for 9 hours. […] All steps were carried out at room temperature. […] This voltage signal is used to calculate the KD value and activity of the scFv using the “n-curve analysis” of the KinExA® Pro software version 4.1.9 or 4.2.10 (FIG. 5) using the option “titrant as analysis concentration reference”.
These mixtures were incubated for 5 hours, centrifuged for 10 minutes at 3800×g, and supernatants were transferred to fresh tubes. […] All steps were carried out at room temperature.

[12] = biological target: T6, rhPD-L2 Fc fusion (RnD Systems, USA, cat. no. 1224-PL) (human, UniProt Q9BQ51 20-219); test: binding ELISA, rhPD-L2 Fc fusion coated, Protein L-HRP detection
T6 construct: Bought reagent; also called human PD-L2; not shown: Fc part of the bought fusion
T6 sequence (looked up): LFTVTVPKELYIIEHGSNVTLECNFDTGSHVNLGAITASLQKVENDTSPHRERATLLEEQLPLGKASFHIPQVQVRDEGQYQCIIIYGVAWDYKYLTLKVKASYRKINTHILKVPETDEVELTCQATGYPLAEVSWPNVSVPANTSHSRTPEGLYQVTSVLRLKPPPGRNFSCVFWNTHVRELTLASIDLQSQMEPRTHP
Method: as §1

[13] = biological target: monkey PD-L1 Fc fusion (Sino Biological, China, cat. no. 90251-C02H) (Rhesus macacque (Macaca mulatta)) (UniProt F6PJN1); test: ratio of KinExA KD values (human PD-L1 Fc fusion as reference)
[14] = biological target: T2, recombinant human (rh) PD-L1 Fc fusion …; test: KinExA in solution, room temperature, PD-L1 Fc fusion titrated against constant scFv1, n-curve analysis
Method: as §3

[15] = biological target: T2, recombinant human (rh) PD-L1 Fc fusion …; test: binding ELISA: coated rhPD-L1 Fc fusion, scFv1 in human serum, 4 h at 37 C, detected with Protein L-HRP
Method: as §2

[16] = biological target: PD-L1 expressing CHO cells (Promega, CS187103) (human, UniProt Q9NZQ7 19-290); test: cell-based or functional assay
[17] = biological target: T7, mouse PD-L1 Fc fusion (Sino Biological, China, cat. no. 50010-M03H or RnD Systems, USA, cat. no. 1019-B7-100) (Mus musculus, UniProt Q9EP73 19-238); test: binding ELISA, mouse PD-L1 Fc fusion coated, Protein L-HRP detection
T7 construct: Two bought reagents were used; not shown: Fc part of the bought fusion

[18] = biological target: T2, recombinant human (rh) PD-L1 Fc fusion …; test: competition ELISA: coated rhPD-L1 Fc fusion, scFv titrated, bound biotinylated PD-1 Fc fusion (15 ng/mL) detected with streptavidin-HRP
Method: Plates were blocked with 1% BSA and 0.05% Tween-20 in PBS, pH7.2. A serial dilution of scFvs was prepared, with eleven 1:3 dilutions starting at 1 mcg/mL, and added to plates. […] Background level was determined in the absence of PD-1. The ELISA was developed with TMB ELISA substrate solution (eBioscience, USA, cat. no. 00-4201-56).

Sequence of PD-L1 expressing CHO cells (Promega, CS187103) (Q9NZQ7 19-290): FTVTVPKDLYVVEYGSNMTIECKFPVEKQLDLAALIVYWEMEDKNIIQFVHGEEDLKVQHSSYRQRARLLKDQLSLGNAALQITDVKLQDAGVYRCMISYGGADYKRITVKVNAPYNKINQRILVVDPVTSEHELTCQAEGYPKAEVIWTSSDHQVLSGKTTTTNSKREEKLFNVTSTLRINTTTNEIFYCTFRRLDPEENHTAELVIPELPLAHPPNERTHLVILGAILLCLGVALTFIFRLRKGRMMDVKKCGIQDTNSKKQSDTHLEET
T2 sequence (Q9NZQ7 19-239 limits assumed): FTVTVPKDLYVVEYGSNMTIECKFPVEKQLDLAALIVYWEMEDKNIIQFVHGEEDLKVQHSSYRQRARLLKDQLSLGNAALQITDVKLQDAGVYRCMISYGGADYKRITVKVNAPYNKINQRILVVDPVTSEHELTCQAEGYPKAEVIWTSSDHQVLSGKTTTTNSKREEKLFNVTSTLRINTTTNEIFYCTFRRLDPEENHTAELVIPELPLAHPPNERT
T1 sequence (Q9NZQ7 19-238 limits assumed): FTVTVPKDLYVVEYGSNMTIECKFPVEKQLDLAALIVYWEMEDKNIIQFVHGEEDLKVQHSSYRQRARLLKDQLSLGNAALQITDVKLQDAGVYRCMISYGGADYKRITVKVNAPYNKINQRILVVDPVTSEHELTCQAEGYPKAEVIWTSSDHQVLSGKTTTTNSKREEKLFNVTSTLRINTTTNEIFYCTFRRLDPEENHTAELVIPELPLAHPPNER
T7 sequence (Q9EP73 19-238 limits assumed, stated change not applied): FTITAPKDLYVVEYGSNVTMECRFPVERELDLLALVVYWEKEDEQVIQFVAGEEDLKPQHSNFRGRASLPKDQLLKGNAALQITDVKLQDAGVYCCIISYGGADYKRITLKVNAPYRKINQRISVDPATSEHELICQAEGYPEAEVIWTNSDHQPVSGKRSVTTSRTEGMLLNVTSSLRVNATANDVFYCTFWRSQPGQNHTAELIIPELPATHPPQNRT
T5 sequence (Q9NZQ7 19-290): as the sequence (Q9NZQ7 19-290) above
T4 sequence (D4AE25 entry or part of it R02H R02H limits assumed): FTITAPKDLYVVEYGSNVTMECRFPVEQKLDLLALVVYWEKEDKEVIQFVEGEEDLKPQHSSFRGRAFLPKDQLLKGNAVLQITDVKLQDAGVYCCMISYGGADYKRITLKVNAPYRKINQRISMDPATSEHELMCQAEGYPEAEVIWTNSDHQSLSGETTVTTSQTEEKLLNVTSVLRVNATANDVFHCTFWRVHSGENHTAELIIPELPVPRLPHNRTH

fold tighter affinity than scFv1 to PD-L1 [1]: ~3 fold
Kd [2]: 0.00277 nM
IC50 [3]: 0.327 nM
B1: IgG_1 (antibody, V domains shown)
VH: EVQLVESGGGLVQPGGSLRLSCTVSGIDLSSYTMGWVRQAPGKGLEWVGIISSGGRTYYASWAKGRFTISRDTSKNTVYLQMNSLRAEDTAVYYCARGRYTGYPYYFALWGQGTLVTVSS
VL: EIVMTQSPSTLSASVGDRVIITCQASEDIYSLLAWYQQKPGKAPKLLIYDASDLASGVPSRFSGSGSGAEFTLTISSLQPDDFATYYCQGNYGSSSSSSYGAVFGQGTKLEIKR
notes: Produced in CHO K1 cells; also called scFv1 converted into IgG format

binding result [4]: no binding (tested: 5 mcg/mL)
EC50 (read off the curve) [5]: ~7 ng/mL
EC50 (read off the curve) [6]: ~7 ng/mL
IC50 (read off the curve) [7]: 10 to 20 nM
binding result [8]: no binding
EC50 (read off the curve) [9]: ~7 ng/mL
Kd [10]: 0.0033 nM
Kd [11]: 0.0128 nM
binding result [12]: no binding (tested: 5 mcg/mL)
fold tighter affinity than to human PD-L1 [13]: 2.7 fold
Kd [14]: 0.0088 nM
EC50 (read off the curve) [15]: ~7 ng/mL
IC50, PD-1/PD-L1 blockade assay (luciferase, PD-L1 CHO cells and PD-1 Jurkat cells) [16]: 0.75 nM and 0.874 nM
binding result [17]: no binding (tested: 5 mcg/mL)
IC50 (read off the curve) [18]: ~1 nM
B2: scFv1 (scFv)
scFv: EIVMTQSPSTLSASVGDRVIITCQASEDIYSLLAWYQQKPGKAPKLLIYDASDLASGVPSRFSGSGSGAEFTLTISSLQPDDFATYYCQGNYGSSSSSSYGAVFGQGTKLTVLGGGGGSGGGGSGGGGSGGGGSEVQLVESGGGLVQPGGSLRLSCTVSGIDLSSYTMGWVRQAPGKGLEWVGIISSGGRTYYASWAKGRFTISRDTSKNTVYLQMNSLRAEDTAVYYCARGRYTGYPYYFALWGQGTLVTVSS
notes: also called E. coli cell expressed scFv1

Further lines, the binder ahead of its results:

B3: CHO cell expressed scFv1 (scFv)
scFv: EIVMTQSPSTLSASVGDRVIITCQASEDIYSLLAWYQQKPGKAPKLLIYDASDLASGVPSRFSGSGSGAEFTLTISSLQPDDFATYYCQGNYGSSSSSSYGAVFGQGTKLTVLGGGGGSGGGGSGGGGSGGGGSEVQLVESGGGLVQPGGSLRLSCTVSGIDLSSYTMGWVRQAPGKGLEWVGIISSGGRTYYASWAKGRFTISRDTSKNTVYLQMNSLRAEDTAVYYCARGRYTGYPYYFALWGQGTLVTVSS
IC50, PD-1/PD-L1 blockade assay (luciferase, PD-L1 CHO cells and PD-1 Jurkat cells) [16]: 0.602 nM

B4: IgG_4 (antibody, V domains shown)
VH: EVQLVESGGGVVRPGGSLRLSCAASGFTFDDYGMTWVRQAPGRGLEWVSGIHWHGKRTGYADSVKGRFTISRDNAKKSLYLQMNSLKGEDTALYHCVRGGMSTGDWFDPWGQGTLVIVSS
VL: DIQMTQSPSSLSASLGDRVTITCRASQSINSYLNWYQQKPGKAPKLLIYVASSLQSGVPSRFSGSGSGTEFTLTISNLQPEDFATYYCQQSYSTPPITFGQGTRLEIKR
notes: Produced in CHO K1 cells; also called H2M8314N as described in WO2015/112805A1
IC50 [3]: 0.606 nM
